The results in this text go back to US11643448B2 (JAPAN SCIENCE AND TECHNOLOGY AGENCY, priority 2013, dated 2023).

One may read the cell viability as a read-out of living cells in per cent, often relative to untreated cells.

Like-named read-outs stand apart in the source and are kept apart here.

For data set [1], the target named is Aβ (Homo sapiens, UniProt P05067). The experiment in a line: Oxidation of Aβ by catalyst under light irradiation. Type of data set: biochemical. As to conditions: Catalyst 1 4 μM or Catalyst 2 20 μM, Aβ 20 μM, 500 nm LED, 37° C., 15 minutes.
The subject of data set [2] is PC12 cells. The experiment in a line: Cell viability after photo-oxygenation reaction in the presence of cells (WST-8). As to conditions: light irradiation, regardless of presence or absence of Aβ (f and h). Type of data set: cell-based, rat. On the procedure: In a plate well in which the PC12 cells had been seeded, a phosphate buffer (pH 7.4, 50 μL) containing 20 μM of Aβ and a catalyst (Catalyst 1 in 4 μM or Catalyst 2 in 20 μM) was irradiated with 500 nm LED (light emitting diode) at 37° C. for 15 minutes. After the reaction, 50 μL of a HEPES buffer solution containing a 0.1% horse serum-containing medium was added to thereto (final Aβ concentration: 10 μM).
In order to achieve Aβ selective oxidation, a peptide having a high affinity for Aβ, D-[Lys-Leu-Val-Phe(4-phenyl)-Phe] (SEQ ID NO: 3) was identified, and was bonded to flavin as an affinity tag of Aβ (Catalyst 2 in FIG. 17). Catalyst 2 or riboflavin itself (Catalyst 1 in FIG. 17) was added to a phosphate buffer containing Aβ, and the mixture was irradiated with light in the presence of cells. 500 nm LED was used as a light source, and light was irradiated at 37° C. for 15 minutes. […] After the oxidation reaction, the cells were further incubated for 2 days, and the cell viability was determined thereafter (bar graph in FIG. 17). […] It is conceivable that the cells were damaged due to non-specific oxidation. On the other hand, when Catalyst 2 was used in the absence of Aβ under the condition j, 50% or more of the cells survived after the light irradiation. […]
(Tetrazolium assays rely on reduction of a dye to a coloured formazan, in cell work by metabolically active cells.)

Data set [3] has as its system PC12 cells. The settings on record: 10 µM.
Description: PC12 cells, i.e., rat adrenal medulla-derived pheochromocytoma (purchased from RIKEN, Japan), were used. A phosphate buffer (pH 7.4) in which Aβ1-42 (20 μM) and riboflavin (4 μM) had been dissolved was incubated at room temperature under irradiation with a fluorescent lamp (24 W, natural white, a distance between a light source and a reaction mixture was about 3 cm). A part of the reaction mixture (50 μL) was added to a cell culture medium (50 μL) (final Aβ concentration was 10 μM), and the mixture was incubated at 37° C. for 48 hours under 5% CO2 atmosphere. Cells were observed and photographed using an inverted microscope DMI6000 B (Leica Microsystems GmbH, Wetzlar, Germany) equipped with a digital camera DFC360 FX (Leica Microsystems GmbH). A cell count reagent containing WST-8 (2-(2-methoxy-4-nitrophenyl)-3-(4-nitrophenyl)-5-(2,4-disulfonyl)-2H-tetrazolium, monosodium salt) (10 μL) was added to the mixture. The mixture was incubated at 37° C. for 6 hours under 5% CO2 atmosphere. Thereafter, absorbance at 450 nm (reference wavelength: 655 nm) was measured by iMark™ plate reader (Bio-Rad Laboratories, Inc., Hercules, Calif.).
The target of data set [4] is T1, Aβ1-42 (Homo sapiens, UniProt P05067). The experiment in a line: Thioflavin T fluorescence assay of aggregation. In kind it is biochemical. As to conditions: Aβ1-42 20 μM, 37° C., incubation time of 3 hours and 6 hours. On the procedure: A part of the reaction mixture (10 μL) was added to a 50 mM glycine-NaOH buffer (pH 8.5, 400 μL) containing thioflavin T (5 μM), and the resultant mixture was immediately mixed to measure a fluorescence intensity of thioflavin T. In the fluorescence intensity measurement, an excitation wavelength was 440 nm, and a fluorescence wavelength was 470 nm.
A phosphate buffer having the same composition was reacted with no irradiation to provide a sample “native Aβ” as a control. Aggregation of each sample was evaluated by thioflavin T assay (it is known that fluorescence intensity of thioflavin T corresponds to the amount of an aggregate being rich in β sheet structure) (FIG. 11).

Data set [5] deals with T1, Aβ1-42. The experiment in a line: Circular dichroism spectroscopy analysis. Type of data set: biochemical. As to conditions: Aβ1-42 20 μM, 37° C. In general terms: Circular dichroism is widely used to follow secondary structure.
Description: A phosphate buffer (10 mM, pH7.4) in which Aβ1-42 (20 μM) and riboflavin (4 μM) had been dissolved was incubated at 37° C. under irradiation with a fluorescent lamp (24 W, natural white, a distance between a light source and a reaction mixture was about 3 cm). A part of the reaction mixture was analyzed using Model 202SF (AVIV Biomedical, Inc., Lakewood, N.J.).
Data set [6] has as its target native Aβ (Homo sapiens, UniProt P05067). The data set is described as follows: Inhibition of aggregation of native Aβ by oxidized Aβ (atomic force microscope analysis). In kind it is biochemical. The settings on record: native Aβ 20 μM with oxidized Aβ 20 μM, 37° C., 6 hours, compared with native Aβ alone. Here is the method:
A part of the reaction mixture (10 μL) was added on mica, incubated at room temperature for 3 minutes, washed with 20 μL of water, and air dried. The measurement was carried out using Nano Wizard II (JPK instruments AG, Berlin, Germany) in a tapping mode in air at room temperature.

Data set [7] has as its target T1, Aβ1-42. The data set is described as follows: Atomic force microscope analysis of fibril formation. Type of data set: biochemical. The settings on record: Aβ1-42 20 μM, 37° C.
Description: A phosphate buffer (10 mM, pH 7.4) in which Aβ1-42 (20 μM) and riboflavin (4 μM) had been dissolved was incubated at 37° C. under irradiation with a fluorescent lamp (24 W, natural white, a distance between a light source and a reaction mixture was about 3 cm). A part of the reaction mixture (10 μL) was added on mica, incubated at room temperature for 3 minutes, washed with 20 μL of water, and air dried. The measurement was carried out using Nano Wizard II (JPK instruments AG, Berlin, Germany) in a tapping mode in air at room temperature.

T1 sequence (P05067 672-713): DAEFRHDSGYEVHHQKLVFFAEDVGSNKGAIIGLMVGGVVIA
Chain of native Aβ (P05067 672-713): as above
Chain of Aβ (P05067 672-713 limits assumed): as the sequence (P05067 672-713) above

`Cc1cc2nc3c(=O)[nH]c(=O)nc-3n(C[C@H](O)[C@H](O)[C@H](O)CO)c2cc1C` [Catalyst 1, riboflavin]: in data set [1], the “extent of Aβ oxidation” value is “about 60%”. In addition, the cell viability entry in data set [2] is recorded as “almost all cells died”.

In data set [3], “oxidized Aβ: Aβ1-42 oxidized with riboflavin under light; Tyr10, His13, His14 and Met35 oxidized, one to eight oxygen atoms added” yielded a cell viability of no less than 50%. The “fluorescence intensity of thioflavin T” value in data set [4] is reported as “significantly lower than that of the native Aβ”. Also, in data set [5], the “secondary structure by circular dichroism” value is “random coil structure was maintained”. Further, the amyloid fibril content result in data set [6] is recorded as “significantly decreased”. The fibril formation entry in data set [7] is “hardly”.
